From paper PMC2949527 (Journal of molecular biology, 2010) come the findings set out here.

The series concerns the molecule itself. The series is described as follows: NMR solution structure.

B1: RFX5(25-90), oligomerization domain of RFX5 (domain or fragment, UniProt P48382 25-90, looked up)
chain: GEPTTLLQRLRGTISKAVQNKVEGILQDVQKFSDNDKLYLYLQLPSGPTTGDKSSEPSTLSNEEYM
Usually stoichiometry N stands for the number of molecules, sites or subunits per partner or assembly. Regarding B1, the “stoichiometry N” value turned out to be 2.
